Our source for the Kd values is paper PMC8565817.

In test [1] the target is Bemarituzumab (human). As to the kind of experiment: SPR. On the technique in general: SPR reads the build-up and loss of mass on a sensor chip optically.
For test [2], the target named is FPA144-F (the fucosylated version of bemarituzumab) (human). Briefly: SPR.

Regarding human Fc gamma receptor IIIa (V158), the Kd was 9.2 nM in test [1] and 207 nM in test [2].

The Kd is a measure of binding affinity in units of concentration. Higher therefore signals a looser complex.
